The assay has as its target interleukin-1 receptor (human (CHO-derived cells) or murine (EL4 cells); not stated which gave the tables) (UniProt P14778). As to the kind of experiment: competition with 35S-IL-1Ra on IL-1 receptor cells, Kd=IC50/2.

In general, Kd refers to the equilibrium constant for the complex coming apart. As for “wild-type human IL-1Ra (from UniProt P18510 26-177)”, the Kd lay in the range of 0.15 to 0.4 nM.

The record behind these values is patent US20150183847A1.
